Data as given in US20230365675A1 (published 2023).

B1: sdCD33_11 (VHH)
VHH: AVQLVESGGGLVQAGGSLRLSCAASGDTFANYAMGWFRQAPGKEREFVAAISWSDSSTHYADSVKGRFTIPRDNAKNAVYLQMDQLKPEDMAVYYCYAYIRGVGEVRYVDYWGQGTQVTVSS
notes: sdAb from a naive llama phage library; also called 430; sdAb430
B2: sdCD33_6 (VHH)
VHH: EVQLVESGGGLVQPRGSLRLSCVVSGSMSSIYSMSWYRQPPGKQRELVAHITTTGTTNYIDSVKGRFTISIDNDINVIYLQMNTLKPEDTAVYYCNAGLKAGPGPRLDYWGLGTQVTVSS
notes: sdAb from a naive llama phage library; also called 416; sdAb416
B3: sdCD33_5 (VHH)
VHH: QVQLQESGGGLVQPGGSLRLSCAASGSVFSIYAMAWYRQAPGKQRELVAVITSGGATNYADSVKGRFTISRDIAKKTLYLQMNTLKPEDTAVYYCYAHLLIQPFDRFYDYWGQGTQVTVSS
notes: sdAb from a naive llama phage library; also called 413; sdAb413

Key:
[1] = molecular target: CD33-GFP fusion protein, wild type (WT), on 293FT cells (UniProt P20138); assay: FACS, WT CD33-GFP on 293FT cells; note: unit not given here
Chain of CD33-GFP fusion protein, wild type (WT), on 293FT cells (P20138 18-364): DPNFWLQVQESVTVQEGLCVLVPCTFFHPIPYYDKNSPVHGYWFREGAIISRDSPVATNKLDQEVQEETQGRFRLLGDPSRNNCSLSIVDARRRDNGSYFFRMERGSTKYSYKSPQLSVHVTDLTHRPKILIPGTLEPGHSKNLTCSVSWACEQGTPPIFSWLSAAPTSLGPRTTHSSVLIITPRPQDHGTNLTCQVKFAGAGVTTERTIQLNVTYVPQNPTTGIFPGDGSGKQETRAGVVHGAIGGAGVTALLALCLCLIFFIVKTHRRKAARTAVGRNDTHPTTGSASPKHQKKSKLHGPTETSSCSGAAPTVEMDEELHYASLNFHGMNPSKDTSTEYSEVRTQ

[2] = molecular target: Mutant CD33-GFP JS23 (L23N) on 293FT cells (UniProt P20138); assay: FACS, mutant CD33-GFP on 293FT cells
Chain of Mutant CD33-GFP JS23 (L23N) on 293FT cells (P20138 18-364 L23N): as the sequence (P20138 18-364) above, with L6N counted along it

[3] = molecular target: Mutant CD33-GFP JS24 (Q24E) on 293FT cells (UniProt P20138); assay: FACS, mutant CD33-GFP on 293FT cells
Chain of Mutant CD33-GFP JS24 (Q24E) on 293FT cells (P20138 18-364 Q24E): as the sequence (P20138 18-364) above, with Q7E counted along it

[4] = molecular target: Mutant CD33-GFP JS25 (V25M) on 293FT cells (UniProt P20138); assay: FACS, mutant CD33-GFP on 293FT cells
Chain of Mutant CD33-GFP JS25 (V25M) on 293FT cells (P20138 18-364 V25M): as the sequence (P20138 18-364) above, with V8M counted along it

[5] = molecular target: Mutant CD33-GFP JS28 (S28L) on 293FT cells (UniProt P20138); assay: FACS, mutant CD33-GFP on 293FT cells
Chain of Mutant CD33-GFP JS28 (S28L) on 293FT cells (P20138 18-364 S28L): as the sequence (P20138 18-364) above, with S11L counted along it

[6] = molecular target: Mutant CD33-GFP M10 (Y127A) on 293FT cells (UniProt P20138); assay: FACS, mutant CD33-GFP on 293FT cells
Chain of Mutant CD33-GFP M10 (Y127A) on 293FT cells (P20138 18-364 Y127A): as the sequence (P20138 18-364) above, with Y110A counted along it

[7] = molecular target: Mutant CD33-GFP M11 (L78T) on 293FT cells (UniProt P20138); assay: FACS, mutant CD33-GFP on 293FT cells
Chain of Mutant CD33-GFP M11 (L78T) on 293FT cells (P20138 18-364 L78T): as the sequence (P20138 18-364) above, with L61T counted along it

[8] = molecular target: Mutant CD33-GFP M12 (G88S) on 293FT cells (UniProt P20138); assay: FACS, mutant CD33-GFP on 293FT cells
Chain of Mutant CD33-GFP M12 (G88S) on 293FT cells (P20138 18-364 G88S): as the sequence (P20138 18-364) above, with G71S counted along it

[9] = molecular target: Mutant CD33-GFP M13 (R91E) on 293FT cells (UniProt P20138); assay: FACS, mutant CD33-GFP on 293FT cells
Chain of Mutant CD33-GFP M13 (R91E) on 293FT cells (P20138 18-364 R91E): as the sequence (P20138 18-364) above, with R74E counted along it

[10] = molecular target: Mutant CD33-GFP M14 (E170R) on 293FT cells (UniProt P20138); assay: FACS, mutant CD33-GFP on 293FT cells
Chain of Mutant CD33-GFP M14 (E170R) on 293FT cells (P20138 18-364 E170R): as the sequence (P20138 18-364) above, with E153R counted along it

[11] = molecular target: Mutant CD33-GFP M15 (Q171A) on 293FT cells (UniProt P20138); assay: FACS, mutant CD33-GFP on 293FT cells
Chain of Mutant CD33-GFP M15 (Q171A) on 293FT cells (P20138 18-364 Q171A): as the sequence (P20138 18-364) above, with Q154A counted along it

[12] = molecular target: Mutant CD33-GFP M16 (4889AII) on 293FT cells (UniProt P20138); assay: FACS, mutant CD33-GFP on 293FT cells
[13] = molecular target: Mutant CD33-GFP M17 (F21Y) on 293FT cells (UniProt P20138); assay: FACS, mutant CD33-GFP on 293FT cells
Chain of Mutant CD33-GFP M17 (F21Y) on 293FT cells (P20138 18-364 F21Y): as the sequence (P20138 18-364) above, with F4Y counted along it

[14] = molecular target: Mutant CD33-GFP M18 (353AAL) on 293FT cells (UniProt P20138); assay: FACS, mutant CD33-GFP on 293FT cells
[15] = molecular target: Mutant CD33-GFP M19 (348ATAI) on 293FT cells (UniProt P20138); assay: FACS, mutant CD33-GFP on 293FT cells
[16] = molecular target: Mutant CD33-GFP M4 (R122D) on 293FT cells (UniProt P20138); assay: FACS, mutant CD33-GFP on 293FT cells
Chain of Mutant CD33-GFP M4 (R122D) on 293FT cells (P20138 18-364 R122D): as the sequence (P20138 18-364) above, with R105D counted along it

[17] = molecular target: Mutant CD33-GFP M5 (AEAD), quadruple mutant, on 293FT cells (UniProt P20138); assay: FACS, mutant CD33-GFP on 293FT cells
Chain of Mutant CD33-GFP M5 (AEAD), quadruple mutant, on 293FT cells (P20138 other isoform, or with tags, fused parts or gaps mutant): as the sequence (P20138 18-364) above, with W5A, H28E, N82A, R105D counted along it

[18] = molecular target: Mutant CD33-GFP M9 (Y49, 50A) on 293FT cells (UniProt P20138); assay: FACS, mutant CD33-GFP on 293FT cells
Chain of Mutant CD33-GFP M9 (Y49, 50A) on 293FT cells (P20138 other isoform, or with tags, fused parts or gaps mutant): as the sequence (P20138 18-364) above, with Y32A, Y33A counted along it

[19] = molecular target: Mutant CD33-GFP N20D on 293FT cells (UniProt P20138); assay: FACS, mutant CD33-GFP on 293FT cells
Chain of Mutant CD33-GFP N20D on 293FT cells (P20138 18-364 N20D): as the sequence (P20138 18-364) above, with N3D counted along it

[20] = molecular target: T1, Mutant CD33-GFP M1 (W22A) on 293FT cells (UniProt P20138 18-364); assay: FACS, mutant CD33-GFP on 293FT cells
T1 construct: whole, on cells; not shown: GFP fused to CD33
T1 sequence (P20138 18-364 W22A): as the sequence (P20138 18-364) above, with W5A counted along it

[21] = molecular target: T2, Mutant CD33-GFP M2 (H45E) on 293FT cells (UniProt P20138 18-364); assay: FACS, mutant CD33-GFP on 293FT cells
T2 construct: whole, on cells; not shown: GFP fused to CD33
T2 sequence (P20138 18-364 H45E): as the sequence (P20138 18-364) above, with H28E counted along it

[22] = molecular target: T3, Mutant CD33-GFP M3 (N99A) on 293FT cells (UniProt P20138 18-364); assay: FACS, mutant CD33-GFP on 293FT cells
T3 construct: whole, on cells; not shown: GFP fused to CD33
T3 sequence (P20138 18-364 N99A): as the sequence (P20138 18-364) above, with N82A counted along it

[23] = molecular target: T4, Mutant CD33-GFP M6 (F43N) on 293FT cells (UniProt P20138 18-364); assay: FACS, mutant CD33-GFP on 293FT cells
T4 construct: whole, on cells; not shown: GFP fused to CD33
T4 sequence (P20138 18-364 F43N): as the sequence (P20138 18-364) above, with F26N counted along it

[24] = molecular target: T5, Mutant CD33-GFP M7 (R98D) on 293FT cells (UniProt P20138 18-364); assay: FACS, mutant CD33-GFP on 293FT cells
T5 construct: whole, on cells; not shown: GFP fused to CD33
T5 sequence (P20138 18-364 R98D): as the sequence (P20138 18-364) above, with R81D counted along it

[25] = molecular target: T6, Mutant CD33-GFP M8 (K52A) on 293FT cells (UniProt P20138 18-364); assay: FACS, mutant CD33-GFP on 293FT cells
T6 construct: whole, on cells; not shown: GFP fused to CD33
T6 sequence (P20138 18-364 K52A): as the sequence (P20138 18-364) above, with K35A counted along it

[26] = molecular target: Biotinylated CD33 protein (UniProt P20138); assay: Octet competition on biotinylated CD33; competitor 348
Chain of Biotinylated CD33 protein (P20138 18-259 limits assumed): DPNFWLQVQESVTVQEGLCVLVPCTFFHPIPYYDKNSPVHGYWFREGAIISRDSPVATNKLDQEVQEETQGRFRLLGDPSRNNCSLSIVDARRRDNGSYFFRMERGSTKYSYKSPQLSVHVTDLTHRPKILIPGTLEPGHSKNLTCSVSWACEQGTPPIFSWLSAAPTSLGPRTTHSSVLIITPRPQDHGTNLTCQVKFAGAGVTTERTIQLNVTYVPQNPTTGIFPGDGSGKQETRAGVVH

[27] = molecular target: Biotinylated CD33 protein (UniProt P20138); assay: Octet competition on biotinylated CD33; competitor 353
[28] = molecular target: Biotinylated CD33 protein (UniProt P20138); assay: Octet competition on biotinylated CD33; competitor 389
[29] = molecular target: Biotinylated CD33 protein (UniProt P20138); assay: Octet competition on biotinylated CD33; competitor 413
[30] = molecular target: Biotinylated CD33 protein (UniProt P20138); assay: Octet competition on biotinylated CD33; competitor 416
[31] = molecular target: Biotinylated CD33 protein (UniProt P20138); assay: Octet competition on biotinylated CD33; competitor 420
[32] = molecular target: Biotinylated CD33 protein (UniProt P20138); assay: Octet competition on biotinylated CD33; competitor 424
[33] = molecular target: Biotinylated CD33 protein (UniProt P20138); assay: Octet competition on biotinylated CD33; competitor 426
[34] = molecular target: Biotinylated CD33 protein (UniProt P20138); assay: Octet competition on biotinylated CD33; competitor 429
[35] = molecular target: Biotinylated CD33 protein (UniProt P20138); assay: Octet competition on biotinylated CD33; competitor h195
CD33 on MOLM-13 cells = molecular target: T7, CD33 on MOLM-13 cells (human, UniProt P20138 18-364); assay: FACS, MOLM-13 cells expressing CD33 against MOLM-13 CD33 knockout
T7 construct: whole, on cells; also called MOLM-13 cell line expressing CD33; wild-type MOLM-13 cells (CD33+)
T7 sequence (P20138 18-364): as the sequence (P20138 18-364) above
Text: A naïve llama phage library was panned and screened to identify single domain antibodies that specifically recognize CD33. A MOLM-13 cell line expressing CD33 was used as a CD33-positive cell line, and a MOLM-13 cell line harboring a knockout of CD33 was used as a CD-33 negative cell line. A purified anti-human CD33 antibody was used as a positive control. Specific binding activity of identified binders was confirmed by FACS. The heavy chain variable region sequences of the identified binders are included herein.

[36] = molecular target: Biotinylated CD33 protein (UniProt P20138); assay: Octet competition on biotinylated CD33; competitor 430

| Binder | FACS binding data [1] | FACS binding data [2] | FACS binding data [3] | FACS binding data [4] | FACS binding data [5] | FACS binding data [6] | FACS binding data [7] | FACS binding data [8] | FACS binding data [9] | FACS binding data [10] | FACS binding data [11] | FACS binding data [12] | FACS binding data [13] | FACS binding data [14] | FACS binding data [15] | FACS binding data [16] | FACS binding data [17] | FACS binding data [18] | FACS binding data [19] | FACS binding data [20] | further results |
| --- | --- | --- | --- | --- | --- | --- | --- | --- | --- | --- | --- | --- | --- | --- | --- | --- | --- | --- | --- | --- | --- |
| B1 | 97.6 | 99.2 | 99.6 | 99.7 | 99.7 | 94.2 | 73.8 | 98.5 | 98.7 | 97.4 | 97.2 | 97.4 | 96.1 | 99.4 | 99.8 | 98.4 | 0.79 | 1.01 | 97.5 | 99.4 | FACS binding data [21]: 99.3; FACS binding data [22]: 99.3; FACS binding data [23]: 98.8; FACS binding data [24]: 98.5; FACS binding data [25]: 97.1; Octet signal [26]: -0.212; Octet signal [27]: -0.112; Octet signal [28]: 0.0436; Octet signal [29]: -0.108; Octet signal [30]: -0.268; Octet signal [31]: -0.169; Octet signal [32]: -0.377; Octet signal [33]: -0.227; Octet signal [34]: -0.29; Octet signal [35]: 0.136; binding result (CD33 on MOLM-13 cells): binds |
| B2 | 98.8 | 94.3 | 98.6 | 99 | 99.6 | 98.9 | 45.1 | 99.1 | 99.2 | 99 | 98.9 | 80.8 | 99.1 | 99.8 | 99.6 | 99.3 | 0.24 | 99.1 | 99 | 1.25 | FACS binding data [21]: 96.6; FACS binding data [22]: 98.7; FACS binding data [23]: 97.9; FACS binding data [24]: 98.6; FACS binding data [25]: 98.9; Octet signal [26]: 0.229; Octet signal [27]: 0.438; Octet signal [28]: 0.456; Octet signal [29]: 0.376; Octet signal [31]: 0.34; Octet signal [32]: 0.22; Octet signal [33]: 0.514; Octet signal [34]: 0.261; Octet signal [36]: 0.697; Octet signal [35]: 0.565; binding result (CD33 on MOLM-13 cells): binds |
| B3 | 98 | 98.4 | 97 | 99.5 | 99.4 | 90.2 | 58.5 | 98.6 | 98.5 | 98.2 | 98.6 | 98.3 | 84.6 | 49.2 | 99.3 | 76 | 0.81 | 0.79 | 56.7 | 76.4 | FACS binding data [21]: 5.93; FACS binding data [22]: 96.8; FACS binding data [23]: 97.5; FACS binding data [24]: 97; FACS binding data [25]: 91.4; Octet signal [26]: -0.024; Octet signal [27]: 0.248; Octet signal [28]: 0.483; Octet signal [30]: -0.0586; Octet signal [31]: 0.15; Octet signal [32]: -0.0796; Octet signal [33]: 0.0667; Octet signal [34]: -0.0887; Octet signal [36]: 0.63; Octet signal [35]: 0.648; binding result (CD33 on MOLM-13 cells): binds |
